In PMC9482650, “Quantitative fragmentomics allow affinity mapping of interactomes” (Nature Communications, 2022) one finds pKd data, which are given here for four molecules.

Some targets named below: PREX1_1, Q8TCU6; RIMS1, Q86UR5; PARD3B_3, Q8TEW8; IL16_2, Q14005; MAGI1_6, Q96QZ7; PDLIM4, P50479; RIMS2, Q9UQ26.
Test in all cases: holdup assay
What all share (design): key: below the threshold = too weak to quantify, mostly under pKd 3.1 to 4
Settings in all cases: plain residues with an end cap or a label only (N-terminal biotin on a linker: ttds)

For a further test, the target named is T1, CNKSR1, Q969H4.
T1 sequence (Q969H4 191-295, limits assumed, looked up): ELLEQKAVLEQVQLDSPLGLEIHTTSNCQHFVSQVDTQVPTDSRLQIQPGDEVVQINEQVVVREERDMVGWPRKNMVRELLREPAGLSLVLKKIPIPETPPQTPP

Another test has as its target T2, PDZD7_2, Q9H5P4.
T2 sequence (Q9H5P4 205-303, limits assumed, looked up): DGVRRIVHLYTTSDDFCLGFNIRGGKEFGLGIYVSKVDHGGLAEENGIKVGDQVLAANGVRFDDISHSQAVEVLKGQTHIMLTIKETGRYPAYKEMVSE

The next test has as its target T3, USH1C_1, Q9Y6N9.
T3 sequence (Q9Y6N9 82-179, limits assumed, looked up): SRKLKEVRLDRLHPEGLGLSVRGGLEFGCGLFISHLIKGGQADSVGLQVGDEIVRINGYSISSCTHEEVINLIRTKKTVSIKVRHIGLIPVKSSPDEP

A further test has as its target T4, PDZD4, Q76G19.
T4 sequence (Q76G19 125-224, limits assumed, looked up): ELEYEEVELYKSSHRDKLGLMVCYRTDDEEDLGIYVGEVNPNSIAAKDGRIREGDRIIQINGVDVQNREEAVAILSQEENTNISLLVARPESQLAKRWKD

Another test concerns the target T5, USH1C_3, Q9Y6N9.
T5 sequence (Q9Y6N9 447-547, limits assumed, looked up): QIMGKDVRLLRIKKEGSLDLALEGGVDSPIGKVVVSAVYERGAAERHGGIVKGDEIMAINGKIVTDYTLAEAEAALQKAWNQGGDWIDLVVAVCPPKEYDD

A further test concerns the target T6, PTPN13_5, Q12923.
T6 sequence (Q12923 1877-1975, limits assumed, looked up): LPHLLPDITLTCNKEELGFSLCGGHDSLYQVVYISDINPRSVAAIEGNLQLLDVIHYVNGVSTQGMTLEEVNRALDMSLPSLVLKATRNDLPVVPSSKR

The target in the next test is T7, SIPA1L3, O60292.
T7 sequence (O60292 961-1052, limits assumed, looked up): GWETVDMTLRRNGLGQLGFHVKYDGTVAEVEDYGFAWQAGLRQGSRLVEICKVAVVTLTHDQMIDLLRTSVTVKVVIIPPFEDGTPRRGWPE

The target of another test is T8, PDZD11, Q5EBL8.
T8 sequence (Q5EBL8 42-139, limits assumed, looked up): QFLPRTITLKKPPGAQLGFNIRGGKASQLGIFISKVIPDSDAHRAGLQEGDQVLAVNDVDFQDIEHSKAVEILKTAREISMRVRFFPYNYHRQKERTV

The next test has as its target T9, PTPN4, P29074.
T9 sequence (P29074 512-599, limits assumed, looked up): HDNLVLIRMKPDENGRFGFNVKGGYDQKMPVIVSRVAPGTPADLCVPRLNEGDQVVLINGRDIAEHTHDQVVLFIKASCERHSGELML

The next test concerns the target T10, NHERF3_2, Q5T2W1.
T10 sequence (Q5T2W1 129-225, limits assumed, looked up): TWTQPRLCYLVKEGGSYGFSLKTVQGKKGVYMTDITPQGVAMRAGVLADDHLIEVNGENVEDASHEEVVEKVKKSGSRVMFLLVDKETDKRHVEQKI

In another test the target is T11, GRIP1_1, Q9Y3R0.
T11 sequence (Q9Y3R0 48-146, limits assumed, looked up): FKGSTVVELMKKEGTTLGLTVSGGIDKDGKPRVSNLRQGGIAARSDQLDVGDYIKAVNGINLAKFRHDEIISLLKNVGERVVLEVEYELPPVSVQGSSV

The target in the next test is T12, PARD6B, Q9BYG5.
T12 sequence (Q9BYG5 152-260, limits assumed, looked up): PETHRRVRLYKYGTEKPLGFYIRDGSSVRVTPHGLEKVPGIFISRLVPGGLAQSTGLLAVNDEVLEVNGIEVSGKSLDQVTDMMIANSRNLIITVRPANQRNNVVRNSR

Another test deals with T13, USH1C_2, Q9Y6N9.
T13 sequence (Q9Y6N9 206-303, limits assumed, looked up): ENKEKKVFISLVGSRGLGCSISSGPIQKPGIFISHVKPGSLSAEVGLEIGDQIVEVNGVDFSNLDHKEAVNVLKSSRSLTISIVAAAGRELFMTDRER

A further test has as its target T14, SYNPO2L, Q9H987.
T14 sequence (Q9H987 1-98, limits assumed, looked up): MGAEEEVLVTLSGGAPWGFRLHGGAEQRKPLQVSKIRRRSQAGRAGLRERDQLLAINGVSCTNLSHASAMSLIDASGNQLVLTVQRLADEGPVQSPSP

The target of the next test is T15, PDZD2_3, O15018.
T15 sequence (O15018 581-682, limits assumed, looked up): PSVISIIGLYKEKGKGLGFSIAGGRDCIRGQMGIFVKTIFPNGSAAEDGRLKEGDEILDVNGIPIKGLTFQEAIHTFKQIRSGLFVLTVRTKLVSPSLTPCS

PREX1_1, Q8TCU6, sequence (Q8TCU6 608-718): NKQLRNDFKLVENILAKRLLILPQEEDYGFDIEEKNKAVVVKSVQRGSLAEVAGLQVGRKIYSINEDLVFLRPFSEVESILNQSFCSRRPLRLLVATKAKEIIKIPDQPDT
RIMS1, Q86UR5, sequence (Q86UR5 584-692): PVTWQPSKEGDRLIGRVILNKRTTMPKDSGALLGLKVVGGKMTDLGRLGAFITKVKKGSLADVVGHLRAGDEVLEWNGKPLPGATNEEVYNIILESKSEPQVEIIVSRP
MAGI1_6, Q96QZ7, sequence (Q96QZ7 1146-1238): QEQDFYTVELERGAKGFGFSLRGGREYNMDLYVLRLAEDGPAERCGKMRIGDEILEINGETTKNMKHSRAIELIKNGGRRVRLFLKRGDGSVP
PDLIM4, P50479, sequence (P50479 1-83): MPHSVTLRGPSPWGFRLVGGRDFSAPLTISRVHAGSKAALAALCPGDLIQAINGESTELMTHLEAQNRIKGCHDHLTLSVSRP
PARD3B_3, Q8TEW8, sequence (Q8TEW8 490-594): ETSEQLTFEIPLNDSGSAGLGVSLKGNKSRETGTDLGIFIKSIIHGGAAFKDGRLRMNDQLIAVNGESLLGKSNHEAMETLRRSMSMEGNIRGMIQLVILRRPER
RIMS2, Q9UQ26, sequence (Q9UQ26 637-758): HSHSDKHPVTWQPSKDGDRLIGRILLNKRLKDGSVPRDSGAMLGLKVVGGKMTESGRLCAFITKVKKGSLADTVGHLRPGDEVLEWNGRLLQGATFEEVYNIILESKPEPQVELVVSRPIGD
IL16_2, Q14005, sequence (Q14005 350-450): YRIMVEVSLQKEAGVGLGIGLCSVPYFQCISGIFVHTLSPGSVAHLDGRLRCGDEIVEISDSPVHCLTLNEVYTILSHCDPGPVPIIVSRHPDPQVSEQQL

In general, pKd refers to the Kd on a negative log10 scale, so that one unit is a factor of ten. Turning to RLQRRRETQV [HPV18-E6, P06463], the negative-log Kd (pKd) entry is listed as “below the threshold” with CNKSR1, Q969H4; “below the threshold” with PDZD7_2, Q9H5P4; “below the threshold” in the test with PREX1_1, Q8TCU6; “below the threshold” with USH1C_1, Q9Y6N9; “below the threshold” with PDZD4, Q76G19; “below the threshold” in the test with RIMS1, Q86UR5. The pKd result in the test with USH1C_3, Q9Y6N9 is reported as “below the threshold”; in the test with PARD3B_3, Q8TEW8 it was “below the threshold”; with PTPN13_5, Q12923 it was “below the threshold”; in the test with IL16_2, Q14005, “below the threshold”; with MAGI1_6, Q96QZ7 it was “below the threshold”; with SIPA1L3, O60292 it was “below the threshold”. The negative logarithm of the Kd (pKd) entry with PDLIM4, P50479 is “below the threshold”; in the test with PDZD11, Q5EBL8 it was “below the threshold”; in the test with PTPN4, P29074, 4.62; with RIMS2, Q9UQ26, “below the threshold”; with NHERF3_2, Q5T2W1 it was “below the threshold”; in the test with GRIP1_1, Q9Y3R0, “below the threshold”. Besides, the pKd entry is reported as “below the threshold” with PARD6B, Q9BYG5; “below the threshold” with USH1C_2, Q9Y6N9; “below the threshold” with SYNPO2L, Q9H987; “below the threshold” with PDZD2_3, O15018.

As for RLPKIKETTV [FRMPD4, Q14CM0], the pKd result was “below the threshold” with CNKSR1, Q969H4; “below the threshold” with PDZD7_2, Q9H5P4; 4.75 in the test with PREX1_1, Q8TCU6; “below the threshold” with USH1C_1, Q9Y6N9; “below the threshold” with PDZD4, Q76G19; “below the threshold” with RIMS1, Q86UR5. For the same molecule, the pKd entry in the test with USH1C_3, Q9Y6N9 is “below the threshold”; with PARD3B_3, Q8TEW8, “below the threshold”; in the test with PTPN13_5, Q12923, “below the threshold”; with IL16_2, Q14005, “below the threshold”; in the test with MAGI1_6, Q96QZ7 it was 4.57; in the test with SIPA1L3, O60292 it was “below the threshold”. Moreover, the negative logarithm of the Kd (pKd) entry with PDLIM4, P50479 is “below the threshold”; with PDZD11, Q5EBL8, “below the threshold”; with PTPN4, P29074, 5.14; with RIMS2, Q9UQ26, “below the threshold”; with NHERF3_2, Q5T2W1, “below the threshold”; with GRIP1_1, Q9Y3R0, “below the threshold”. For the same molecule, the negative-log Kd (pKd) entry with PARD6B, Q9BYG5 is “below the threshold”; with USH1C_2, Q9Y6N9, “below the threshold”; in the test with SYNPO2L, Q9H987 it was “below the threshold”; with PDZD2_3, O15018, “below the threshold”.

For the molecule SGSRPSATVV [HPV73-E6, Q82005], the negative logarithm of the Kd (pKd) result with CNKSR1, Q969H4 is “below the threshold”; in the test with PDZD7_2, Q9H5P4, “below the threshold”; with PREX1_1, Q8TCU6, “below the threshold”; with USH1C_1, Q9Y6N9, “below the threshold”; with PDZD4, Q76G19, “below the threshold”; with RIMS1, Q86UR5, “below the threshold”. The pKd result was “below the threshold” with USH1C_3, Q9Y6N9; “below the threshold” with PARD3B_3, Q8TEW8; “below the threshold” with PTPN13_5, Q12923; “below the threshold” with IL16_2, Q14005; “below the threshold” in the test with MAGI1_6, Q96QZ7; 4.17 with SIPA1L3, O60292. Also, the pKd result was “below the threshold” with PDLIM4, P50479; “below the threshold” in the test with PDZD11, Q5EBL8; 4.65 in the test with PTPN4, P29074; “below the threshold” in the test with RIMS2, Q9UQ26; “below the threshold” in the test with NHERF3_2, Q5T2W1; “below the threshold” with GRIP1_1, Q9Y3R0. The negative logarithm of the Kd (pKd) entry with PARD6B, Q9BYG5 was “below the threshold”; in the test with USH1C_2, Q9Y6N9, “below the threshold”; with SYNPO2L, Q9H987 it was “below the threshold”; in the test with PDZD2_3, O15018, “below the threshold”.

For RPLPRKVSQL [DOCK4, Q8N1I0], the pKd entry was “below the threshold” with CNKSR1, Q969H4; “below the threshold” with PDZD7_2, Q9H5P4; “below the threshold” in the test with PREX1_1, Q8TCU6; “below the threshold” with USH1C_1, Q9Y6N9; “below the threshold” with PDZD4, Q76G19; “below the threshold” with RIMS1, Q86UR5. Also, the negative logarithm of the Kd (pKd) entry was “below the threshold” with USH1C_3, Q9Y6N9; “below the threshold” with PARD3B_3, Q8TEW8; “below the threshold” with PTPN13_5, Q12923; “below the threshold” in the test with IL16_2, Q14005; “below the threshold” in the test with MAGI1_6, Q96QZ7; “below the threshold” with SIPA1L3, O60292. Besides, the pKd result in the test with PDLIM4, P50479 was “below the threshold”; in the test with PDZD11, Q5EBL8, “below the threshold”; with PTPN4, P29074, “below the threshold”; with RIMS2, Q9UQ26, “below the threshold”; with NHERF3_2, Q5T2W1, “below the threshold”; in the test with GRIP1_1, Q9Y3R0, 4.15. Besides, the negative-log Kd (pKd) entry in the test with PARD6B, Q9BYG5 was “below the threshold”; with USH1C_2, Q9Y6N9, “below the threshold”; in the test with SYNPO2L, Q9H987, “below the threshold”; in the test with PDZD2_3, O15018, “below the threshold”.
